Columns and labels:
[1] = substrate: Nc1nc2c(ncn2[C@@H]2O[C@H](COP(=O)(O)OP(=O)(O)OP(=O)(O)O)[C@@H](O)[C@H]2O)c(=O)[nH]1; experiment: purified protein; assay type: biochemical, Clostridium thermosuccinogenes; conditions: 5 mM D-galactose, 10 mM MgCl2, 100 mM KCl, MOPS pH 7.0, 55 °C
[2] = substrate: Nc1ncnc2c1ncn2[C@@H]1O[C@H](COP(=O)(O)OP(=O)(O)OP(=O)(O)O)[C@@H](O)[C@H]1O; experiment: purified protein; assay type: biochemical, Clostridium thermosuccinogenes; conditions: 5 mM D-galactose, 10 mM MgCl2, 100 mM KCl, MOPS pH 7.0, 55 °C

B1: galactokinase (GalK), CDQ83_02810 (Clostridium thermosuccinogenes) (protein)
chain: DINQLKQKFIEIFGDNGEALRVFSSPGRVNLIGEHTDYNGGYVFPAALTLSSTVVARPRKDRQINLIATDLGIMVSASLDELEKHKDIKWGNYQLGVADELQKAGYKLVGCDMLFHDTVPLGSGLSSSAAIEVVTAITLVTLGNEAHGVNSGIDMVEMAKISQTAEHNYVGVNCGIMDQFASAMGKANHAIFLDCKDLSFEHVPLDLKGYRIVISNTKKKRSLGAVKYNERRSECEAGLEILKKAIPGISCLGEISAEQFEKNKHLITDEVVRKRVEHVIYEDDRVLKSVEALKKGDLHSFGRYMIESHNSLRDLYEVTGLELDTLVEEALKIDGVIGSRMTGAGFGGCTVSIVREDAVDRFIEDVGSAYTQKTGITAEFYVSEVGDGGREIK
notes: full length, N-terminal His6-TEV tag kept, E. coli Rosetta, HisTrap purified
Km [1]: 35 µM | kcat [1]: 2.56 ⋅ 10^3 U/umol of | Km [2]: 3980 µM | kcat [2]: 1.07 ⋅ 10^3 U/umol of

Reference: publication PMC6543838, “Assessing Cofactor Usage in Pseudoclostridium thermosuccinogenes via Heterologous Expression of Central Metabolic Enzymes” (Frontiers in Microbiology, 2019)
